# Reference: the RNAGym collection of RNA variant scans (doi:10.1073/pnas.2313332121)
# This sample holds only a part of the variants without activity.
# B1: TPR 5TU (parent)
# chain: GGAUCUUCUCGAUCUAACAAAAAAGACAAAUCUGCCACAAAGCUUGAGAGCAUCUUCGGAUGCAGAGGCGGCAGCCUUCGGUGGCGCGAUAGCGCCAACGUUCUCAACUAUGACACGCAAAACGCGUGCUCCGUUGAAUGGAGUUUAUCAUG
# Variants of: B1
# Experiment: polymerase ribozyme fitness, log enrichment relative to wild type (log ratio); higher = more active; in vitro selection for triplet polymerase activity
# Summary of the method: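 Mutant libraries for each subunit of a heterodimeric triplet polymerase ribozyme were made by PCR and then transcribed. Each library underwent one round of in vitro selection in triplicate: annealing with a biotinylated primer, the partner subunit and triplets, frozen incubation at −7 °C, gel excision of extended constructs, streptavidin-bead capture and RT-PCR. Input and output libraries were Illumina-sequenced, and only genotypes with ≥10 input reads and ≥1 read per output were kept. Fitness is the logarithm, base 2, of genotype enrichment over wild-type enrichment, computed from inverse-variance-weighted replicate averages.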
row,Variant,polymerase ribozyme fitness (log ratio)
1,GGAUCUUCUCGAUCUAACAAAAAAGACAAAUCUGCCACAAAACUUGAGAGCAUCUUCGGAUGCAGAGGCGGCAGCCUUCGGUGGCGCGAUAGAGCCAACGUGCUCAACUAUGACACGCAAAACGCGUGCUCCGUAGAAUGGAGUUUAUCAUG [G42A C93A U102G U135A],≤ -4.2
2,GGAUCUUCUCGAUCUAACAAAAAAGACAAAUCUGCCACAAAACUUGAGAGCAUCUUCCCAUGCAGAGGCGGCAGCCUUCGGUGGCGCCAUGGCGCCAACGUUCUCCGCUAUGACACGCAAAACGCGUGCUCCGUUGAAUGGAGUUUAUCAUG [G42A G58C G59C G88C A91G A106C A107G],≤ -4.2
3,GGAUCUUCUCGAUCUAACAAAAAAGACAAAUCUGCCACAAAACUUGAGAGCAUCUUCGGAUGCAGAGGCGGCAGCCUUCGGUGGCGCGAUAGCGCCAACGUUCUCAACUAUGACACGCAAAACGCGUGCUCCGUUGAAUGGCGUUUAGCAUG [G42A A142C U148G],≤ -4.2
4,GGAUCUUCUCGAUCUAACAAAAAAGACAAAUCUGCCACAAAACUUGAGAGCAUCUUCGGAUGCAGAGGCGGCAGGCUUCGGUGGCGAGAUAGCGCCAACGUUCUCAACUAUGACACGCAAAACGCGUGCUCCGUUGAAUGGAGUUUAUCAUG [G42A C75G C87A],≤ -4.2
5,GGAUCUUCUCGAUCUAACAAAAAAGACAAAUCUGCCACAAAACUUGAGAGCAUGUUCGGAUGCAGAGGCGGCAGCCUUCGGCGGCGCGAUAGCUCCAACGUUCUCAACUAUGACACGCAAAACGCGUGCUCCGUUGAAUGGAGUUUAUCAUG [G42A C54G U82C G94U],≤ -4.2
6,GGAUCUUCUCGAUCUAACAAAAAAGACAAAUCUGCCACAAAACUUGAGAGCAUCUUCAGAUGCCUAGGCGGCAGCCUUCGGUGUCGCGAUAGCGCCAACGUUCUCAACUAUGACACGCAAAACGCGUGCUCCGUUGAAUGGAGUUUAUCAUG [G42A G58A A64C G65U G84U],≤ -4.2
7,GGAUCUUCUCGAUCUAACAAAAAAGACAAAUCUGCCACAAAACUUGAGAGGAUCUUCGGAUGCAGAGGCGGCAGGCUUCGGUGGCGCGAUAGCGCCAAUGUUCUCAACUAUGACACGCAAAACGCGUGCUCCGUUGAAUGGAGUUUAUCAUG [G42A C51G C75G C99U],≤ -4.2
8,GGAUCUUCUCGAUCUAACAAAAAAGACAAAUCUGCCACAAAACUUGAAAGCAUCUUCGGAUGCAGAGGCGGCAGCCUUCGGUGGCGCGAUAGCGCCAACGUCAUCAACUAUGACACGCAAAACGCGUGCUCCGUUGAAUGGAGUUUAUCAUG [G42A G48A U102C C103A],≤ -4.2
9,GGAUCUUCUCGAUCUAACAAAAAAGACAAAUCUGCCACAAAACUUGUGAGCAGCUUCGGAUGCUGAGGCGGCAGCCUUCGGUGGCGCGAUAGCUCCAACGUUCUCAACUAUGACACGCAUAACGCGUGCUCCGUUGAAUGGAGUUUAUCAUG [G42A A47U U53G A64U G94U A120U],≤ -4.2
10,GGAUCUUCUCGAUCUAACAAAAAAGACAAAUCUGCCACAAAACUUGAGAGCAUCUUCGGAUGCAGAGGCGGCGGCCUUCGGUGGCGUGAUAGCGCCAACGUUCUCAACUAUGACACGCAAAACGCGUGCUCCGUUGAAUGGAGUUUAUCAUG [G42A A73G C87U],≤ -4.2
11,GGAUCUUCUCGAUCUAACAAAAAAGACAAAUCUGCCACAAAACUUGAGAGCGUCUUCGGAGGCAGAGGCGGCAGCCUUCGGUGGCACGAUAGCGCCAACGUUCUCAACUAUGAAACGCAAAACGCGUGCUCCGUUGAAUGGAGUUUAUCAUG [G42A A52G U61G G86A C114A],-3.88
12,GGAUCUUCUCGAUCUAACAAAAAAGACAAAUCUGCCACAAAACUUGAGCGCAUCUUCGGAUGCAGAGGGGGCAGCCUUCGGUGGCGCGAUAGCGCCAACGUUCUCAACUAUGACACGCAAAACGCGUGCUCCGUUGUAUGGAGUUUAUCAUG [G42A A49C C69G A137U],≤ -4.2
13,GGAUCUUCUCGAUCUAACAAAAAAGACAAAUCUGCCACAAAACUUGAGAACAUCUUCGGAUGCAGAGGCGGCAGCUUUCGGUGUCGCGAUAACGCCAACGUUCUCACCUAUGACAGGCAAAACGCGUGCUCCGUUGAAUGGAGUUUAUCAUG [G42A G50A C76U G84U G92A A107C C116G],≤ -4.2
14,GGAUCUUCUCGAUCUAACAAAAAAGACAAAUCUGCCACAAAACUUGAGACCAUCAUCGGAUGCAGAGGCGGCAGCCUUCGGUGACGCGAUAGCGCCAACGUUCUCAACUAUGACACGCAAAACGCGUGCUCCGUUGAAUGGAUUUUAUCAUG [G42A G50C U55A G84A G143U],≤ -4.2
15,GGAUCUUCUCGAUCUAACAAAAAAGACAAAUCUGCCACAAAACUUGAGGGCAUCUUCGGAUGCGGAGGCGGCAGCCUUCGGUGGCGCGAUAGCGCCAACGUUCUCAUCUAUGAUACGCAAAACGCGUGCUCCGUUGAAUGGAGUUUAUCAUG [G42A A49G A64G A107U C114U],≤ -4.2
16,GGAUCUUCUCGAUCUAACAAAAAAGACAAAUCUGCCACAAAACUUGAGAGCAUCUUCUGAUGCGGAGUCGGCAGCCUUCGGUGGCGCGAUACCGUCAACGUUCUCAACUAUGACACGCAAAACGCGUGUUCCGCUGAAUGGAGUUUAUCAUG [G42A G58U A64G G68U G92C C95U C129U U134C],≤ -4.2
17,GGAUCUUCUCGAUCUAACAAAAAAGACAAAUCUGCCACAAAACUUGAGAGCAUCUUCGAAUGCAGAGGCGGCAGCCUUCGGUGGCGCGAUAACGCCAACAUUCUCAACUAUGACACGCAAAACGAGUGCUCCGUUGAAUGGAGUUCAUCAUG [G42A G59A G92A G100A C125A U146C],≤ -4.2
18,GGAUCUUCUCGAUCUAACAAAAAAGACAAAUCUGCCACAAAACUUGAGAGCAUCUUCGGAUGCAGAGGCGGCAGCCUUCGGUGGCGGGAUAGCGCCAACGUUCUCAACUAUGACACGCAAAACGCGUGCUCCGUUGAAUGGAGUUUAUCAUG [G42A C87G],≤ -4.2
19,GGAUCUUCUCGAUCUAACAAAAAAGACAAAUCUGCCACAAAAAUUGAGAGCAUCUUCGGAUGCAGAGGCGGCAGCCUUCGGAGGCGCGAUAGCGCCAGCGUUCUCAACUAUGACACGCAAAACGCGUGCUCCGUUGAAUGGAGUUUAUCAUG [G42A C43A U82A A98G],≤ -4.2
